According to patent US20260227403A1 (HENRY M JACKSON FOUNDATION FOR THE ADVANCEMENT OF MILITARY …, published 2026):

Target: T1, FLAG-SPDEF (NM_012391) (UniProt O95238 1-335)
T1 construct: Expressed in HEK-293 cells and tested as cell lysate on an immunoblot; also called SAM pointed domain-containing ETS transcription factor; not shown: FLAG tag
T1 sequence (looked up): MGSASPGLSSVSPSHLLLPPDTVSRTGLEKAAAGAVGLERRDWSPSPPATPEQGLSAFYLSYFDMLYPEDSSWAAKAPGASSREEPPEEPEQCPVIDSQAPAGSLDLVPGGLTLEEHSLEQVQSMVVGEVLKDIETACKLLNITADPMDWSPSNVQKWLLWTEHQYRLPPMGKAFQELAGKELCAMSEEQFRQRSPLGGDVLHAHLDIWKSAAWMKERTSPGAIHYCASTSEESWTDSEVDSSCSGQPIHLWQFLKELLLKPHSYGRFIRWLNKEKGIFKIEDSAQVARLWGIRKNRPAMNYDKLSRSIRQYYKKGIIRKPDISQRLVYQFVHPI
Experiment: immunoblot of cell lysates (HEK-293 2 µg per lane) probed with 29E4; the protein is shown present in panels D and F
Experimental: Immunoblots using antibodies against ETV1 (A and H), ETV4 (B), ERG (C), SPDEF (D), FLI1 (E), FLAG (F), and GAPDH (G), as a loading control. […] PC3 cells were transfected with 25 nM non-targeting (NT) siRNA or ETV-1 siRNA oligos (lanes 1 and 2, respectively). […] were infected with either a control vector (lane 10) or adenoviral vector expressing FLI1 (lanes 11).
Cell lysates were then cleared by centrifugation at 10,000×g for 15 minutes at 4° C. and transferred to fresh tubes. Protein concentration was measured using Protein Assay Reagent (Bio-Rad, Hercules, CA). […] Separated proteins were transferred onto PVDF membranes using a Trans-Blot SD semi-dry transfer cell (BioRad) at 25 V for 90 minutes. Membranes were blocked in blocking buffer (Tris buffered saline with 0.25% Tween 20 (TBST) containing 1% BSA) for one hour at room temperature before incubation with primary antibodies (1 ng/mL) for 12 hours at 4° C. Membranes were then washed with wash buffer (TBST) in three ten-minute washes before treatment with IRDye 680RD conjugated goat anti-rabbit or IRDye 800 RD conjugated goat anti-mouse secondary antibodies (LI-COR Biosciences, Lincoln, NE) for three hours at room temperature.

B1: ETV1 rabbit monoclonal antibody (29E4) (antibody, V domains shown)
VH: QELEESGGDLVKPGASLTLTCTASGFFFSAENHICWVRQAPGKGLEWIGCVYIGSYVGGSGDPYYASWAKGRFTISKTSSTTVTLQMSSLTAADTATYFCARDLGSLWGPGTLVTVSS
VL: DVVMTQTASSVSAAVGGTVTIACQSSQSVYDNNNLAWFQQKPGQPPKRLIYSASTLASGVSSRFKGSGYGTQFTLTISDVQCDDAATYYCVGAFSGYIFVFGGGTEVVVK
notes: constant regions are not; also called 29E4 mAb; ETV1 29E4 mAb
  binding result: no binding
